Source: the domain aggregation screens of Martell et al. (2025)

Assay: soluble fraction after stress (log2 fold change); higher = more stays soluble; pooled small domains, quantitative proteomics
Settings: stress: 75 degC
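Further: 20 min heating vs room temperature control held 20 min.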

Sequence	soluble fraction (log2)
HMVAFYATPKERGIYDDAETYREGDIVSIADGSRWIYVNPTATAGNDPADGSVYWERMSGAATGP	0.116
HMVAGHLQEKKGYFYMVLTYRDHEGKRKSKWLPTGLTIKGNKKRAQDLLQDARKNFVPDIPT	-2.37
HMVAGHLQEKNGYFYIVLNYTNHEGKRKSKWITTGLTVKGNKKRAQDLLQEARKTFVPDIPT	-2.88
HMVAPKDIVMPSFVGKKYTDVVNTPNSSYTFEFKKDEKNSSDYAVGFIMDQKPKAGETVKSNATVTLIVSK	0.0603
HMVAPNSEATTKLIIEKTKYANESPAILMGFKATATMLMAKHVVLPTSKYAYFNEGRALLEKAIK	0.154
HMVAREAYTTQNLTDVFSISRQAVEKRAKREGWQSVPRKGRGGGKLWVVSSMPAETRDLLASLLLRK	-0.608
HMVDALYGQGARVMRDFSEGSGIVKLDNGETWTGRLSPAASGASLYVGDRVIVTRIDGAIAEVTPP	0.00352
HMVDDNFGLGEVTDQNYLTVLGRALDLIGWTDEQADSYSLKTFGVPHWDELGRSQAEKLVAHLIGLLKEQM	0.0834
HMVDIEQAEFLSRQFDLLLARLDDPTIEWQDIADIRSEYTGENEHRDTIRKGSKLFYEYLQAGWIKN	-0.678
HMVDISLSDRELEVLRLLAMGLSNADISRRLYLSEGTIRNYMSGIFSKLNVSDRTQAVVIALREGLVNL	-1.56
HMVDPAEASKRAREYLDALPADDLKDVIRQFSATLAEGSVVLGYFQRSGLKSKVVKTALEQFVASTILSK	-1.16
HMVDPAFLAWQQKPENTWFGTDRRKTALAIAIAEEIRNDPANSNLVGAAFYARVAEETEETLN	-0.546
HMVDPWLEQVHRASAAYATAHGSARIPTTHPDLGWKVVRVRQRHRKGLLSDEWVAKFEALPGWTWEPK	-1.52
HMVDQAFQTQLKNIQARTGKNLDELYAFIRASGLVKHGEIRDLAKRELSLGHGDANTLAKFYLESLAAAA	0.0377
HMVDQKLIQASAEHSGIRIDRFLSEQLPEHSRSYIQKLIKDGQVSIGGKAVKSNYKIAGTEEISLLIPDQ	-0.0516
HMVDTSDLPAIVEKVFADNPEQVNDILNGKDRVKGFLVGQIMKATRGQAPPDEVNKLIDATLEKMKAA	0.239
HMVDYIGRRGVMLSTVSEEKMGNAEVVIDGNSYNIYVKSLDGSTIAYHQEILIINKSKDNNYFLVQIY	-2.81
HMVEAIDQALIEKQIQAVLQENSAAVKKYQAGKTEVLAFLIGQSMRKIAKKVDANLVKNILLEQLKNK	0.228
HMVEDFSEVLLQYIREQGGAIALNDKTDAGVIYDTFGVSKKTFKKAVGDLYKKRLIVLGDEGIRLA	-0.757
HMVEIGENIKKLRKAKRMTQKEVANQLNVTPQTISKWERNISYPDLDMLVKLSQLFHISTDALL	-0.553
HMVELNDNEKIVYDILKETEKIHIDELTAKVQLTQSILSGALVQMEMKGMIVSLPGKMYKLL	-1.65
HMVELRDGSLPLARGSVGDLVAEVQRKLGVAADGIFGPQTERAVRAFQARAGLASDGIVGPLTWSALFGA	-0.516
HMVELVKVPALQGETVDEAIADIKDAGLEPGQVRYVESDLPKDTVTYQSVDAGEQVKAGTVINLQASKGP	0.765
HMVEMSNMELVREQYFQNLIYNVGDWVKDSKTEITGEVVKRGTNYLTIVQEDFTLHKVWLEDAESME	-0.511
HMVEPDELTEREREVLQFVARGLSNKEIGAALALSPHTIKAHLRSILDKLHLRSRAEAAAWAVRSGLS	-0.344

Sequence	soluble fraction (log2)
HMVEPLIVRNFSINYADIDKLETKIKDYISNSDKSGVNRGRVTSDTRTNMLIVTETASKLAQVEQLLKALD	-0.279
HMVEPTDFTYLKAEVETAKALKQADYTVATWKSFAGELAEAEEVIAKTDASQAEVNEALSHLQAAEKELV	0.23
HMVETDQESSLIQAIYKYFEITGDNTFFDEKVGEKTVADRMEWAMDYLIQNRFSEEYGLIWGA	-0.285
HMVFADRLRALRKKSGLTQDEFSKQTGIGRSAVGMYESGKREPNYTTLSKVARFYHVSTDYLLGRTDTP	-1.52
HMVFQTAAEKAYEIISKKIMKGEYEPGMRLVRRQLAQELGVSPIPILEAMKRLEQDGLIEYKAHWGSIVTI	-2.29
HMVFRFELQPSSATPLYRQIVEQVTRAVAAGVLRDGEELPSVRAVAQEYVINPMTVSKAYSLLEAQSI	-0.366
HMVFSNLGSRGEEVRQIQTKLKELGYLQGNVDGIYGNQTKQAVTAFQRDHGLSADGIAGEKTLAALGIG	0.636
HMVGAEDISKPMNLGALMRTAHAFGASFFFTINAHPKVRHAYNSDTSRSFDHMPYYPWDTMEE	0.151
HMVGDLPPQELRVFELIGDGLSNREIADEMILAEKTIKNYVTSLLQKLGMQRRTEAAAFAARLDER	-0.0289
HMVGDMLTQKDSEGLTAYLYQQGIISQREMLLLNGILKDRVLTGMEKGQRDSVRASMVQHLLAMLNMM	-1.94
HMVGEQISYIPLKFATASEVVKSLTSMFQQQKGIAPIRIVAEERTNAILLLASEADTARVKNLIAMMDKGV	-2.15
HMVGGIAIGQFNVPRGSVKVTAGGRLLQEGLDYTVNYQAGRVQILDESLKNSNVPIEISTESNS	0.106
HMVGMDRYFKIKNIKDSSAAFERDYILHFLKENDWMVSKTAQMIGLERTTLYKKIKQLGLASMLEN	-3.24
HMVGQIISNARKQEKMTQSELAEKVGTNKTYISRIEKGVIEPGVGLFFRIIDALGLKIEIVKP	-2.07
HMVHSEDLQDHKYVSQLGEVFLKENPNYENIKKSWGDHMVVIKKFGRYPHRNKILNRKSTPEELEFLKG	-0.0435
HMVILPGEKMVVKIVQPGKEKGQGVGYLADGTMIVVDSGDKMIGQDVPTEITRVFQTVAGKMLFAVPVD	-0.73
HMVIMDLIVNGEPKYVVGEQLHLILDELGYSGKHFVVELNGEILSKEAYTTTKLTAADRLEIVSFVGG	-3.23
HMVITATYTDFMDALEADEVKQVQFSSTEINYTIEKGGHVQYFKTGVVDNPQLPQILREKGVTYAAEIP	-0.512
HMVITDPFFLEPENLVKDAVALMEKYRISGVPITKKGKLVGILTNRDLRFESNYEQPIANVMS	0.137
HMVITISEADVSGTYTKSITQGDWKYIRTWTPFEDERLYDLAKDPMELRDLAPAAPSKLAELRELLSALVS	-1.4
HMVIVMRKDADAASIEKVVSEVKSRGFMPHVSEGESRTLIGAIGPAPTEELREHFAGLAGVETVVRITK	-0.533
HMVKDIEFSLPLEQDYYKVLISVKDSQGKRQVYEELHRAGDTVYAAVRYYGSGELEIHLNGKFYKTIK	-0.868
HMVKDLEIETIRLNNLLASDAEEVLKSLGGAKPTYKAVAVPGSNSLVIEGTKADLIKLKSIINALEDGS	0.00865
HMVKETNYSFFLKQIDAGTVEQVQIEDTEIKFKVSTADGKEQVYSTVRVEDPDLVDRLYSKGNIDFTGN	-0.0797
HMVKIIHYEVYANRGDGWKLVDQFSADQRQEAVNLAKEIETEDQVAVKIIREIFDVQDNTYQESVEYIG	-1.59
